How the values were obtained:
HeLa Kyoto [1] = experiment: solubility in G1/S (NP-40 vs SDS abundance) (log2 ratio); higher = more soluble; conditions: cell cycle stage: G1/S
HeLa Kyoto [2] = experiment: melting temperature (median over replicates), in situ; higher = more thermally stable
HeLa Kyoto [3] = experiment: solubility change mitosis vs G1/S (difference of NP-40 vs SDS log2 ratios) (log2 ratio difference); higher = more soluble in mitosis
HeLa Kyoto [4] = experiment: thermal stability score vs G1/S (z-score of summed log2 fold changes over temperatures); higher = more thermally stable than in G1/S
[5] = cell cycle stage: early G1 (4.5 h after nocodazole release)
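Throughout, for melting temperature (median over replicates), in situ: HeLa Kyoto cells synchronized by double thymidine or nocodazole block, proteins quantified by TMT10plex mass spectrometry, three independent biological replicates.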
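Throughout, for solubility change mitosis vs G1/S (difference of NP-40 vs SDS log2 ratios): synchronized HeLa Kyoto cells (double thymidine block for G1/S, nocodazole release for mitosis), protein amounts in NP-40 versus SDS lysates quantified by mass spectrometry, three biological replicates.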
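Throughout, for solubility in G1/S (NP-40 vs SDS abundance): HeLa Kyoto cells arrested at G1/S by double thymidine block, proteins quantified by TMT10plex mass spectrometry in mild NP-40 versus SDS extracts, three biological replicates.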
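Throughout, for thermal stability score vs G1/S (z-score of summed log2 fold changes over temperatures): synchronized HeLa Kyoto cells, proteins quantified by TMT10plex mass spectrometry, three biological replicates, mitosis taken 0.5 h after nocodazole release, G1/S directly after double thymidine block.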

Sequence of ABCF1 (chain, as listed by the source): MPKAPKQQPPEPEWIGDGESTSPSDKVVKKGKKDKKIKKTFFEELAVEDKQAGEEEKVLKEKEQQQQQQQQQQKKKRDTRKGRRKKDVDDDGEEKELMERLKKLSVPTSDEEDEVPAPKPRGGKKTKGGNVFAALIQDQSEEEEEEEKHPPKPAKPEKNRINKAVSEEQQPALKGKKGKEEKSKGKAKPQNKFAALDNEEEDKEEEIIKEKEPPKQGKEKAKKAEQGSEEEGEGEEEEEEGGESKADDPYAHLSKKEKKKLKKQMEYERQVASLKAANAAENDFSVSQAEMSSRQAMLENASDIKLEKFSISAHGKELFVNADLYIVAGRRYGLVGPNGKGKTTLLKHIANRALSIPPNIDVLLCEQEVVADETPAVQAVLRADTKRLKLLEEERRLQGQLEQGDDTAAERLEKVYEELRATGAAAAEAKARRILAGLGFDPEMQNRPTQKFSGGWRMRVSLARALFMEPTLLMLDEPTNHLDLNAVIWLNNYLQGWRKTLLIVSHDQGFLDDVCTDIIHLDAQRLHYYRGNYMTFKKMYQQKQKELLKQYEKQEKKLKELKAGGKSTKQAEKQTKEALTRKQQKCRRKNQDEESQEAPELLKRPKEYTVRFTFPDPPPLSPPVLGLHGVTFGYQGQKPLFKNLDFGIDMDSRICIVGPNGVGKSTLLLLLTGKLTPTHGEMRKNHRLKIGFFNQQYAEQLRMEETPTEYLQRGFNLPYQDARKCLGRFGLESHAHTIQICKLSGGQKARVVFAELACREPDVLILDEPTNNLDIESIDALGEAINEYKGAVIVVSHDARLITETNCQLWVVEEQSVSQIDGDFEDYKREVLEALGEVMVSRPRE

| Substance | solubility in G1/S (log2) (HeLa Kyoto [1]) | melting temperature (HeLa Kyoto [2]; cell cycle stage: G1/S) | melting temperature (HeLa Kyoto [2]; cell cycle stage: mitosis) | solubility change mitosis (log2) (HeLa Kyoto [3]) | thermal stability score (HeLa Kyoto [4]; [5]) | thermal stability score (HeLa Kyoto [4]; cell cycle stage: mitosis) |
| --- | --- | --- | --- | --- | --- | --- |
| MAGPRVEVDGSIMEGGGQILRVSTALSCLLGLPLRVQKIRAGRSTPGLRPQHLSGLEMIRDLCDGQLEGAEIGSTEITFTPEKIKGGIHTADTKTAGSVCLLMQVSMPCVLFAASPSELHLKGGTNAEMAPQIDYTVMVFKPIVEKFGFIFNCDIKTRGYYPKGGGEVIVRMSPVKQLNPINLTERGCVTKIYGRAFVAGVLPFKVAKDMAAAAVRCIRKEIRDLYVNIQPVQEPKDQAFGNGNGIIIIAETSTGCLFAGSSLGKRGVNADKVGIEAAEMLLANLRHGGTVDEYLQDQLIVFMALANGVSRIKTGPVTLHTQTAIHFAEQIAKAKFIVKKSEDEEDAAKDTYIIECQGIGMTNPNL [RTCA] | 0.177 | 54.4 °C | 54.4 °C | -0.173 | -1.26 | -1.94 |
| MLKFRTVHGGLRLLGIRRTSTAPAASPNVRRLEYKPIKKVMVANRGEIAIRVFRACTELGIRTVAIYSEQDTGQMHRQKADEAYLIGRGLAPVQAYLHIPDIIKVAKENNVDAVHPGYGFLSERADFAQACQDAGVRFIGPSPEVVRKMGDKVEARAIAIAAGVPVVPGTDAPITSLHEAHEFSNTYGFPIIFKAAYGGGGRGMRVVHSYEELEENYTRAYSEALAAFGNGALFVEKFIEKPRHIEVQILGDQYGNILHLYERDCSIQRRHQKVVEIAPAAHLDPQLRTRLTSDSVKLAKQVGYENAGTVEFLVDRHGKHYFIEVNSRLQVEHTVTEEITDVDLVHAQIHVAEGRSLPDLGLRQENIRINGCAIQCRVTTEDPARSFQPDTGRIEVFRSGEGMGIRLDNASAFQGAVISPHYDSLLVKVIAHGKDHPTAATKMSRALAEFRVRGVKTNIAFLQNVLNNQQFLAGTVDTQFIDENPELFQLRPAQNRAQKLLHYLGHVMVNGPTTPIPVKASPSPTDPVVPAVPIGPPPAGFRDILLREGPEGFARAVRNHPGLLLMDTTFRDAHQSLLATRVRTHDLKKIAPYVAHNFSKLFSMENWGGATFDVAMRFLYECPWRRLQELRELIPNIPFQMLLRGANAVGYTNYPDNVVFKFCEVAKENGMDVFRVFDSLNYLPNMLLGMEAAGSAGGVVEAAISYTGDVADPSRTKYSLQYYMGLAEELVRAGTHILCIKDMAGLLKPTACTMLVSSLRDRFPDLPLHIHTHDTSGAGVAAMLACAQAGADVVDVAADSMSGMTSQPSMGALVACTRGTPLDTEVPMERVFDYSEYWEGARGLYAAFDCTATMKSGNSDVYENEIPGGQYTNLHFQAHSMGLGSKFKEVKKAYVEANQMLGDLIKVTPSSKIVGDLAQFMVQNGLSRAEAEAQAEELSFPRSVVEFLQGYIGVPHGGFPEPFRSKVLKDLPRVEGRPGASLPPLDLQALEKELVDRHGEEVTPEDVLSAAMYPDVFAHFKDFTATFGPLDSLNTRLFLQGPKIAEEFEVELERGKTLHIKALAVSDLNRAGQRQVFFELNGQLRSILVKDTQAMKEMHFHPKALKDVKGQIGAPMPGKVIDIKVVAGAKVAKGQPLCVLSAMKMETVVTSPMEGTVRKVHVTKDMTLEGDDLILEIE [PC] | -0.0111 | 51.4 °C | 51.5 °C | -0.101 | -1.77 | -2.7 |
| MAAASPLRDCQAWKDARLPLSTTSNEACKLFDATLTQYVKWTNDKSLGGIEGCLSKLKAADPTFVMGHAMATGLVLIGTGSSVKLDKELDLAVKTMVEISRTQPLTRREQLHVSAVETFANGNFPKACELWEQILQDHPTDMLALKFSHDAYFYLGYQEQMRDSVARIYPFWTPDIPLSSYVKGIYSFGLMETNFYDQAEKLAKEALSINPTDAWSVHTVAHIHEMKAEIKDGLEFMQHSETFWKDSDMLACHNYWHWALYLIEKGEYEAALTIYDTHILPSLQANDAMLDVVDSCSMLYRLQMEGVSVGQRWQDVLPVARKHSRDHILLFNDAHFLMASLGAHDPQTTQELLTTLRDASESPGENCQHLLARDVGLPLCQALVEAEDGNPDRVLELLLPIRYRIVQLGGSNAQRDVFNQLLIHAALNCTSSVHKNVARSLLMERDALKPNSPLTERLIRKAATVHLMQ [TTC38] | 0.319 | 53.1 °C | 53.1 °C | -0.0718 | -0.435 | -0.408 |
| APOB | -0.404 | 57.6 °C | 55.5 °C | 0.0239 | -3.15 | -0.312 |
| MSFPKAPLKRFNDPSGCAPSPGAYDVKTLEVLKGPVSFQKSQRFKQQKESKQNLNVDKDTTLPASARKVKSSESKESQKNDKDLKILEKEIRVLLQERGAQDRRIQDLETELEKMEARLNAALREKTSLSANNATLEKQLIELTRTNELLKSKFSENGNQKNLRILSLELMKLRNKRETKMRGMMAKQEGMEMKLQVTQRSLEESQGKIAQLEGKLVSIEKEKIDEKSETEKLLEYIEEISCASDQVEKYKLDIAQLEENLKEKNDEILSLKQSLEENIVILSKQVEDLNVKCQLLEKEKEDHVNRNREHNENLNAEMQNLKQKFILEQQEREKLQQKELQIDSLLQQEKELSSSLHQKLCSFQEEMVKEKNLFEEELKQTLDELDKLQQKEEQAERLVKQLEEEAKSRAEELKLLEEKLKGKEAELEKSSAAHTQATLLLQEKYDSMVQSLEDVTAQFESYKALTASEIEDLKLENSSLQEKAAKAGKNAEDVQHQILATESSNQEYVRMLLDLQTKSALKETEIKEITVSFLQKITDLQNQLKQQEEDFRKQLEDEEGRKAEKENTTAELTEEINKWRLLYEELYNKTKPFQLQLDAFEVEKQALLNEHGAAQEQLNKIRDSYAKLLGHQNLKQKIKHVVKLKDENSQLKSEVSKLRCQLAKKKQSETKLQEELNKVLGIKHFDPSKAFHHESKENFALKTPLKEGNTNCYRAPMECQESWK [HMMR] | 0.497 | 49.2 °C | 50.1 °C | 0.189 | -0.359 | -1.33 |
| MASESDTEEFYDAPEDVHLGGGYPVGSPGKVGLSTFKETENTAYKVGNESPVQELKQDVSKKIIESIIEESQKVLQLEDDSLDSKGKELSDQATASPIVARTDLSNIPGLLAIDQVLPEESQKAESQNTFEETELELKKCFPSDETCEKPVDETTKLTQTSSTEQLNVLETETEVLNKEAVEVKGGGDVLEPVSSDSLSTKDFAAVEEVAPAKPPRHLTPEPDIVASTKKPVPARPPPPTNFPPPRPPPPSRPAPPPRKRKSELEFETLKTPDIDVPKENITSDSLLTASMASESTVKDSQPSLDLASATSGDKIVTAQENGKAPDGQTVAGEVMGPQRPRSNSGRELTDEEILASVMIKNLDTGEEIPLSLAEEKLPTGINPLTLHIMRRTKEYVSNDAAQSDDEEKLQSQPTDTDGGRLKQKTTQLKKFLGKSVKRAKHLAEEYGERAINKVKSVRDEVFHTDQDDPSSSDDEGMPYTRPVKFKAAHGFKGPYDFDQIKVVQDLSGEHMGAVWTMKFSHCGRLLASAGQDNVVRIWALKNAFDYFNNMRMKYNTEGRVSPSPSQESLSSSKSDTDTGVCSGTDEDPDDKNAPFRQRPFCKYKGHTADLLDLSWSKNYFLLSSSMDKTVRLWHISRRECLCCFQHIDFVTAIAFHPRDDRYFLSGSLDGKLRLWNIPDKKVALWNEVDGQTKLITAANFCQNGKYAVIGTYDGRCIFYDTEHLKYHTQIHVRSTRGRNKVGRKITGIEPLPGENKILVTSNDSRIRLYDLRDLSLSMKYKGYVNSSSQIKASFSHDFTYLVSGSEDKYVYIWSTYHDLSKFTSVRRDRNDFWEGIKAHNAVVTSAIFAPNPSLMLSLDVQSEKSEGNEKSEDAEVLDATPSGIMKTDNTEVLLSADFTGAIKVFVNKRKNVS [WDR44] | -0.102 | 55.7 °C | 55.1 °C | -0.145 | -1.63 | -2.21 |
| ABCF1 | -0.133 | 52.7 °C | 52.3 °C | 0.0453 | -2.34 | -2.94 |
| MDEMATTQISKDELDELKEAFAKVDLNSNGFICDYELHELFKEANMPLPGYKVREIIQKLMLDGDRNKDGKISFDEFVYIFQEVKSSDIAKTFRKAINRKEGICALGGTSELSSEGTQHSYSEEEKYAFVNWINKALENDPDCRHVIPMNPNTDDLFKAVGDGIVLCKMINLSVPDTIDERAINKKKLTPFIIQENLNLALNSASAIGCHVVNIGAEDLRAGKPHLVLGLLWQIIKIGLFADIELSRNEALAALLRDGETLEELMKLSPEELLLRWANFHLENSGWQKINNFSADIKDSKAYFHLLNQIAPKGQKEGEPRIDINMSGFNETDDLKRAESMLQQADKLGCRQFVTPADVVSGNPKLNLAFVANLFNKYPALTKPENQDIDWTLLEGETREERTFRNWMNSLGVNPHVNHLYADLQDALVILQLYERIKVPVDWSKVNKPPYPKLGANMKKLENCNYAVELGKHPAKFSLVGIGGQDLNDGNQTLTLALVWQLMRRYTLNVLEDLGDGQKANDDIIVNWVNRTLSEAGKSTSIQSFKDKTISSSLAVVDLIDAIQPGCINYDLVKSGNLTEDDKHNNAKYAVSMARRIGARVYALPEDLVEVKPKMVMTVFACLMGRGMKRV [PLS3] | 0.439 | 54.9 °C | 54.5 °C | 0.00363 | 1.07 | 1.27 |
| MASSRCPAPRGCRCLPGASLAWLGTVLLLLADWVLLRTALPRIFSLLVPTALPLLRVWAVGLSRWAVLWLGACGVLRATVGSKSENAGAQGWLAALKPLAAALGLALPGLALFRELISWGAPGSADSTRLLHWGSHPTAFVVSYAAALPAAALWHKLGSLWVPGGQGGSGNPVRRLLGCLGSETRRLSLFLVLVVLSSLGEMAIPFFTGRLTDWILQDGSADTFTRNLTLMSILTIASAVLEFVGDGIYNNTMGHVHSHLQGEVFGAVLRQETEFFQQNQTGNIMSRVTEDTSTLSDSLSENLSLFLWYLVRGLCLLGIMLWGSVSLTMVTLITLPLLFLLPKKVGKWYQLLEVQVRESLAKSSQVAIEALSAMPTVRSFANEEGEAQKFREKLQEIKTLNQKEAVAYAVNSWTTSISGMLLKVGILYIGGQLVTSGAVSSGNLVTFVLYQMQFTQAVEVLLSIYPRVQKAVGSSEKIFEYLDRTPRCPPSGLLTPLHLEGLVQFQDVSFAYPNRPDVLVLQGLTFTLRPGEVTALVGPNGSGKSTVAALLQNLYQPTGGQLLLDGKPLPQYEHRYLHRQVAAVGQEPQVFGRSLQENIAYGLTQKPTMEEITAAAVKSGAHSFISGLPQGYDTEVDEAGSQLSGGQRQAVALARALIRKPCVLILDDATSALDANSQLQVEQLLYESPERYSRSVLLITQHLSLVEQADHILFLEGGAIREGGTHQQLMEKKGCYWAMVQAPADAPE [TAP1] | -0.0535 | 49.8 °C | 50.5 °C | -0.112 | 0.594 | 1.74 |
| MLLT4 | -0.184 | 50.9 °C | 50.3 °C | 0.00908 | -0.182 | -0.125 |
